Measured values taken from the RNAGym collection of RNA variant scans (doi:10.7554/elife.90254).

B1: LINE1-full (parent)
chain: UACGUAGGUGGUUUUCCCCUGAUAGUGCUAAGGGGGCCUGGAAGUUUGGACUGGGCAGAGCUCAACACAGCGUGGCAAAGUGGCUGUGGCUAGACUGCCUCUCUGGAUUCCUCGUCACUCAGCAGGGCAUCUCUGAGAGAAAUGCC

Variants of: B1
Assay: self-cleavage, relative activity (ratio to wild type); higher = more cleavage; in vitro, sequencing; the parent is a self-cleaving ribozyme

Row | Variant | self-cleavage
1 | U45A A94G | 0.05
2 | U45A A94U | 0.2
3 | U46C U104A | 1.11
4 | U46G G53U | 1.73
5 | G44U A107G | 1.7
6 | U46G G114A | 1.18
7 | U46A U134G | 0.84
8 | U46A U134A | 0.77
9 | U45A G89C | 0.31
10 | U45C G80C | 1.8
11 | U46C G125C | 1.44
12 | U46C C95U | 0.23
13 | U46G | 1.25
14 | U46A | 1.17
15 | U46C | 1.41
16 | U46C A92G | 0.29
17 | U46C G144A | 2.24
18 | U46A G54A | 0.37
19 | U45G U96A | 0.03
20 | U45C G70U | 0.06
21 | U46C U87G | 0.55
22 | U45A A117U | 0.76
23 | U45A A117G | 1.48
24 | U45G U81A | 1.82

Row | Variant | self-cleavage
25 | U45C G139C | 1.63
26 | U45A U143A | 1.21
27 | U45C U96C | 0.12
28 | U45G U130C | 2.36
29 | U46A G89C | 0.03
30 | U45C U112C | 1.27
31 | U45C G114A | 1.48
32 | U45A A78U | 1.99
33 | U46C G139A | 1.23
34 | U46C A78C | 1.9
35 | U46C A78G | 1.62
36 | U45G U102A | 1.73
37 | U45G G55C | 0.08
38 | U45C G60U | 0.02
39 | U45C G60C | 0.03
40 | U45G A142G | 2.33
41 | U45G A107U | 1.05
42 | G44U A69G | 0.66
43 | U47A | 1.22
44 | U46C U85A | 0.14
45 | U45C A59G | 0.1
46 | U45C A117U | 1.36
47 | U45C A117C | 2.57
48 | U46C U143G | 1.41

Row | Variant | self-cleavage
49 | U46C U143C | 1.52
50 | U46C U143A | 1.44
51 | U45A A121G | 1.88
52 | U45A A121C | 1.62
53 | U45A A121U | 0.99
54 | U45A G114U | 1.46
55 | U45C G144U | 1.42
56 | U45G U112C | 1.38
57 | U46C G49A | 1.4
58 | U46C A65U | 0.24
59 | U46C A65G | 0.06
60 | U46G U143C | 1.43
61 | U45C A142G | 1.26
62 | U46C G72U | 1.35
63 | U46C G72A | 0.92
64 | U46C C56U | 0.5
65 | G44U A142G | 1.68
66 | U45C U91G | 0
67 | U45C U91C | 0.69
68 | U45C U91A | 0.55
69 | U46C C71U | 1.11
70 | U46C C71G | 0.96
71 | U45G U47C | 1.92
72 | U46G U102C | 1.19

Row | Variant | self-cleavage
73 | U46C U81G | 0.54
74 | U46C U81A | 2.18
75 | U45C A57U | 0.11
76 | U45C A57G | 0.7
77 | U46A C145U | 1.52
78 | U46C C113U | 1.53
79 | U46A C146A | 1.53
80 | U45C U62G | 0
81 | U45C U62A | 0.04
82 | G44U | 1.56
83 | G44C | 1.22
84 | U45C U87C | 0.23
85 | U45C U87A | 0.09
86 | U46C U100A | 1.22
87 | U45C A67U | 0.12
88 | U46C U47G | 1.53
89 | U45A A141G | 1.06
90 | G44A U73C | 1.68
91 | U45G G88U | 0.06
92 | U46G C103A | 1.25
93 | U45C C113U | 1.15
94 | U45C C113A | 2.37
95 | U45G A59G | 0
96 | U47A A67G | 0.38

Row | Variant | self-cleavage
97 | U46A U102C | 1.28
98 | U46C A121C | 1.9
99 | U46C A121G | 1.64
100 | U45C A94C | 0.04
101 | U45C A94G | 0.3
102 | U46A U85A | 0.06
103 | U46A U85C | 0.08
104 | U46C G97A | 0.23
105 | U46G U62C | 0
106 | U46A A50G | 0.87
107 | U45C G105A | 1.34
108 | U45C G48U | 0.9
109 | U45G U108C | 1.91
110 | U46A A136U | 1.18
111 | U45C U52A | 1.33
112 | U46C G48A | 1.04
113 | U46G A65G | 0.05
114 | U45C A92G | 0.08
115 | U45C C61U | 0.09
116 | U46G U96C | 0.74
117 | U45G A78G | 1.13
118 | U45C C76A | 1.22
119 | U46A G58A | 0.04
120 | G44A U109C | 1.09

Row | Variant | self-cleavage
121 | U45A A57U | 0.08
122 | U45A A57G | 1.01
123 | U46A U81C | 1.15
124 | U46G G89A | 0.04
125 | U46C G53A | 1.54
126 | U45C C111U | 1.51
127 | U45A U112C | 1.36
128 | U46A U87A | 0.03
129 | U45C U47G | 1.09
130 | U45C U47C | 1.23
131 | G44U U109C | 1.31
132 | U45C | 1.36
133 | U45A | 1.21
134 | U45G | 1.18
135 | U46A A117U | 1.46
136 | U46A A117G | 1.78
137 | U47A A77C | 1.6
138 | U47A A77U | 1.46
139 | U45C C131U | 0.93
140 | U45C G93A | 0.07
141 | U45C A138U | 1.48
142 | U45C A138C | 1.44
143 | U45C A138G | 1.47
144 | U46A A129G | 1.16

Row | Variant | self-cleavage
145 | U45C A77G | 2.62
146 | U46A G114C | 1.56
147 | U45C U119A | 1.3
148 | U45C U119C | 2.12
149 | U46C C133U | 1.13
150 | U45C A79C | 1.23
151 | U46C U132A | 2.44
152 | U46C U132C | 1.61
153 | U46C U132G | 1.91
154 | G44C A141G | 1.03
155 | U45C U104A | 1.43
156 | U45A G60A | 0.03
157 | U45A U85A | 0.06
158 | U46C G58U | 0.05
159 | U46A C51U | 1.35
160 | U45A A136G | 2
161 | U46C G106A | 1.22
162 | U46C G106U | 0.84
163 | U47A A57U | 0.08
164 | U47A A57C | 0.06
165 | U45C A64G | 0.22
166 | U46C U62C | 0.02
167 | U45G A117G | 0
